Test results as given in PMC8326586.

What follows are sequences tested on T1, AbTetR (TetR class G) (Acinetobacter baumannii AYE), ORF:695ec09f (assay: EMSA).
T1 sequence: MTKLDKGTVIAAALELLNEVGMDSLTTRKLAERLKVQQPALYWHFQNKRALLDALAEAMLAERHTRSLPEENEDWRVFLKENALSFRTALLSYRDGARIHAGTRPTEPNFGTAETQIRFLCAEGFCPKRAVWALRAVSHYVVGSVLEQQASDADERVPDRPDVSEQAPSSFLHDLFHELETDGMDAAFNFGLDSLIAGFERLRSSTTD

Sequence	binding
CTGAAACTCCAGCGCCGCTCAATGGAGCGACTTTATCAACGATAAGGAGATGGACATATAACTTATCGGTGATAAATTGTCAAGCACTGGCGAAGGAACGTGA (double strand) [103 bp tetR-tetA(G) fragment]	binds
CTGAAACTCCAGCGCCGCTCAATGGAGCGACTTTATCAACGATAAGGAGATGGACATATAACTTA (double strand) [65 bp tetR-tetA(G) fragment]	binds
ATCAACGATAAGGAGATGGACATATAACTTATCGGTGATAAATTGTCAAGCACTGGCGAAGGAACGTGA (double strand) [70 bp tetR-tetA(G) fragment]	binds
CTGAAACTCCAGCGCCGCTCAATGGAGCGACTTTATCAACGATAAGGAGATGGACATATAACTTATCGGTGATAAATTGTCAAGCACTGGCGAAGGAACGTGAATGACCAAACTGGACAAGGGCACCGTGATCGCGGCGGCGCTAGAGCTGTTGAACGAGGTTGGCATGGACAGCCTGACGACGCGGAAGCTCGCTGAACGCCTCAAGGTTCAGCA (double strand) [216 bp tetR-tetA(G) fragment]	binds
CGAATCAAGCAGGAACCATCCAAGATTGGCATAAAAGGTACATTCAACCTTTTCACTGCATCCCATTGGTGCACGTACTCGGTCTTGCAACTCGGA (double strand) [96 bp non-binding sequence]	no binding
GCACAAGCTCACGCAGAAGCGTCGGAAGGACGGGCATGATGAGGCCGAGACCCATGGCGTCAAGACCCACGATCAGCAGGGCAATGATGGCAGAGCTGCGCACCTGAAACTCCAGCGCCGCTCAATGGAGCGACTTTATCAACGATAAGGAGATGGACATATAACTTATCGGTGATAAATTGTCAAGCACTGGCGAAGGAACGTGA (double strand) [206 bp tetR-tetA(G) fragment]	binds
